Experimental data from PMC7652391.

Target: Mature human mitochondrial heat shock protein family D member 1 (HSPD1) (human), P10809
Experiment: cryo-EM structure; single-particle cryoEM of reconstituted oligomeric HSPD1; grids by TED (6 and 50 ms), chameleon (54 ms) and Vitrobot (6 s blot); 50 mM Tris, 300 mM NaCl, 10 mM MgCl2 pH 8; consensus reconstructions in C1 and C7 symmetry
Details: remark: other sources report otherwise

stoichiometry N: 7
B1: Mature human mitochondrial heat shock protein family D member 1 (HSPD1), P10809 27-573 (natural protein)
chain: AKDVKFGADARALMLQGVDLLADAVAVTMGPKGRTVIIEQSWGSPKVTKDGVTVAKSIDLKDKYKNIGAKLVQDVANNTNEEAGDGTTTATVLARSIAKEGFEKISKGANPVEIRRGVMLAVDAVIAELKKQSKPVTTPEEIAQVATISANGDKEIGNIISDAMKKVGRKGVITVKDGKTLNDELEIIEGMKFDRGYISPYFINTSKGQKCEFQDAYVLLSEKKISSIQSIVPALEIANAHRKPLVIIAEDVDGEALSTLVLNRLKVGLQVVAVKAPGFGDNRKNQLKDMAIATGGAVFGEEGLTLNLEDVQPHDLGKVGEVIVTKDDAMLLKGKGDKAQIEKRIQEIIEQLDVTTSEYEKEKLNERLAKLSDGVAVLKVGGTSDVEVNEKKDRVTDALNATRAAVEEGIVLGGGCALLRCIPALDSLTPANEDQKIGIEIIKRTLKIPAMTIAKNAGVEGSLIVEKIMQSSSEVGYDAMAGDFVNMVEKGIIDPTKVVRTALLDAAGVASLLTTAEVVVTEIPKEEKDPGMGAMGGMGGGMGGGMF
